Substrate in data set [1]: NC(=O)c1ncn([C@@H]2O[C@H](COP(=O)(O)O)[C@@H](O)[C@H]2O)c1NC=O
As to the kind of experiment: purified protein. In kind it is biochemical, Cryptococcus neoformans. Particulars: IMP cyclohydrolase activity, 100 mM Tris-Cl pH 7.5, 37 °C.

Data set [2] deals with the molecule itself. As to the kind of experiment: SEC-MALS.

B1: Cryptococcus neoformans AICAR transformylase/IMP cyclohydrolase (ATIC) (enzyme, UniProt J9VJP1 1-605, looked up)
chain: MSSEAPIALLSVYDKTGLLPFAKSLKELGFRLLGSGGTAKMIREAGMEIEDVSNITKAPEMLGGRVKTLHPAVHGGILSRDIPSDLADLATNKISPITLVVCNLYPFVLQTAKPDCTLAGAIEEIDIGGVTLLRAAAKNHGRVSIISSPSDYETIVAELRAKGEVSAETRRGLAIKAFEDTKSYDEAISDYFRKVYATPGVEEEMKAGAGVGYQRLGLRYGANPHQKPAQAFVEQGEMPIKVLSGSPGYINLLDALNSWALVKELAAGLDLPAAASFKHVSPAGAAVGLPLDERAAKVFGVEDLKELSPLACAYARARGADRMSSFGDFIALSHTVDTPTAKIISREVSDGVIAPGYEPEALEILSKKKGGKYCVLQMDPTYVPPEIETRQVYGISLQQKRNDCKIDESLFKNVVTANKDLPKSAVTDLVVATLALKYTQSNSVCYALNGTVIGLGAGQQSRIHCTRLAGDKADNWWLRHHPRVLELPFKKGTKRADKANAIDLFVTGQAFEAEGGERAQWESLFETVPEPLTKEEREKHMKELTGVACASDAFFPFPDNVHRAKRSGATYLAAPSGSIMDKECIKAADESNLVFCHTDLRLFHH
For the protein B1, in data set [1], the Km was found to be 30 ± 1 µM, the Vmax amounted to 8.6 µmol/min/mg and the kcat is 7.7 ± 0.1 s⁻¹. Further, in data set [2], the “stoichiometry N” value came out at 2.

The values above are taken from PMC9525906 (The Journal of Biological Chemistry, 2022).
